T1: human FcγRIIB (human, UniProt P31994 43-217)
T1 chain: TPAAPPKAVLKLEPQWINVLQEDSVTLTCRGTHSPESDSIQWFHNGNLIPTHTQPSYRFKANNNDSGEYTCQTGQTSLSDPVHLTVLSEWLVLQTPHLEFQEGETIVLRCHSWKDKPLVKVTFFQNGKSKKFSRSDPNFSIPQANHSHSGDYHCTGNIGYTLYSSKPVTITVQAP


Tests used:
Assay in all cases: SPR; human
human FcγRIIB = biological target: T1, human FcγRIIB
SDIE = biological target: SDIE
Afucosylated = biological target: Afucosylated

Binder	Kd (human FcγRIIB) [µM]	Kd (SDIE) [µM]	Kd (Afucosylated) [µM]
GAALIE (protein) ASTKGPSVFPLAPSSKSTSGGTAALGCLVKDYFPEPVTVSWNSGALTSGVHTFPAVLQSSGLYSLSSVVTVPSSSLGTQTYICNVNHKPSNTKVDKRVEPKSCDKTHTCPPCPAPELLAGPSVFLFPPKPKDTLMISRTPEVTCVVVDVSHEDPEVKFNWYVDGVEVHNAKTKPREEQYNSTYRVVSVLTVLHQDWLNGKEYKCKVSNKALPLPEEKTISKAKGQPREPQVYTLPPSREEMTKNQVSLTCLVKGFYPSDIAVEWESNGQPENNYKTTPPVLDSDGSFFLYSKLTVDKSRWQQGNVFSCSVMHEALHNHYTQKSLSLSPGK	19.6		
FcγRIIb (receptor) TPAAPPKAVLKLEPQWINVLQEDSVTLTCRGTHSPESDSIQWFHNGNLIPTHTQPSYRFKANNNDSGEYTCQTGQTSLSDPVHLTVLSEWLVLQTPHLEFQEGETIVLRCHSWKDKPLVKVTFFQNGKSKKFSRSDPNFSIPQANHSHSGDYHCTGNIGYTLYSSKPVTITVQAP		0.665	5.88

— patent publication US20250171558A1 (published 2025)
